According to publication PMC4207802:

Experiments:
[1] = molecular target: T3 – TSHR-LRR11/FSHR (human) (UniProt P16473)
[2] = molecular target: T1 – FSHR-HinR/TSHR (human) (UniProt P16473)
[3] = molecular target: T4 – TSHR-LRR10/FSHR (human) (UniProt P16473)

## recombinant human thyrotropin (rhTSH) (from UniProt P01215 25-116; P01222 21-132) (ligand)
[1]
  EC50 of intracellular cAMP accumulation in transfected COS-7 cells, rhTSH dose-response: 3.8 mU/ml
  intracellular cAMP accumulation in transfected COS-7 cells, rhTSH 0–100 mU/ml; value at 100 mU/ml: 32.9 nM
[2]
  EC50 of intracellular cAMP accumulation in transfected COS-7 cells, rhTSH dose-response: 0.4 mU/ml
  intracellular cAMP accumulation in transfected COS-7 cells, rhTSH 0–100 mU/ml; value at 100 mU/ml: 57.2 nM
[3]
  EC50 of intracellular cAMP accumulation in transfected COS-7 cells, rhTSH dose-response: 11.6 mU/ml
  intracellular cAMP accumulation in transfected COS-7 cells, rhTSH 0–100 mU/ml; value at 100 mU/ml: 36.6 nM
